The record followed here is PMC5180209 (Structure (London, England : 1993), 2016).

The target in the experiment is B56γ 31–380 (PP2A regulatory subunit B56) (UniProt Q13362 31-380). The experiment can be described thus: ITC. On the technique in general: ITC needs no label: the signal is the heat of the interaction.

Square brackets hold non-standard residues; d marks the D form. Ends that are not written are not given here. pS = N[C@@H](COP(=O)(O)O)C(=O)O

As to KL[pS]PIIED [BubR1 peptide 668-KLpSPIIED-675], the “fold weaker binding than the peptide with residue 676” value was approximately 1.7 fold.
As for RDIASKKPLL[pS]PIPELPEVPE [pS-RepoMan peptide, 581-RDIASKKPLL-pS-PIPELPEVPE-601 (mono-phosphorylated RepoMan)], the Kd turned out to be 100 nM.
Same read-out and setting: under TLSIKKL[pS]PIIEDDREADH [pS-BubR1 peptide, 663-TLSIKKL-pS-PIIEDDREADH-681 (mono-phosphorylated BubR1)] stands 600 nM.
Regarding KL[pS]PIIEDE [BubR1 peptide 668-KLpSPIIEDE-676], the “fold increase of affinity as salt is reduced from 300 mM to 150 mM” value is approximately 3.6 fold.
Take KLEPIIEDE [BubR1 peptide 668-KLEPIIEDE-676]: the “fold weaker affinity than KLpSPIIEDE” value came out at 2.4 fold.
As to KL[pS]PIIED[pS] [pSpS-BubR1 peptide, 668-KL-pS-PIIED-pS-676 (dually-phosphorylated BubR1)], binding was characterised by a dissociation constant (Kd) of 2000 nM.

Usually Kd stands for the equilibrium constant for the complex coming apart. A higher Kd goes with lower affinity.
